The values that follow come from patent publication US20070104647A1.

Test [1] addresses transferrin receptor on 293F and HT29 cells (UniProt P02786). Description: cell-based or functional assay.
Test [2] has the same target. As to the kind of experiment: FACS, non-transfected 293F cells. (In general: In flow cytometry, cells or beads pass a laser one at a time.)
Test [3] has the same target. Description: FACS, Ovr115-transfected 293F cells.
Test [4] addresses Full length HA-tagged Ovr115 (Met1-Leu435) expressed on transfected LMTK or 293F cells (human) (UniProt Q9NRS4). Description: FACS, Ovr115-HA LMTK cells.
Test [5] has the same target. As to the kind of experiment: FACS, Ovr115-transfected 293F cells.
The target is the same in test [6]. As to the kind of experiment: FACS on Ovr115 transfected mouse LMTK cells, PE conjugate alone without MAb [panel A].

UniProt P02786, sequence (P02786 whole entry): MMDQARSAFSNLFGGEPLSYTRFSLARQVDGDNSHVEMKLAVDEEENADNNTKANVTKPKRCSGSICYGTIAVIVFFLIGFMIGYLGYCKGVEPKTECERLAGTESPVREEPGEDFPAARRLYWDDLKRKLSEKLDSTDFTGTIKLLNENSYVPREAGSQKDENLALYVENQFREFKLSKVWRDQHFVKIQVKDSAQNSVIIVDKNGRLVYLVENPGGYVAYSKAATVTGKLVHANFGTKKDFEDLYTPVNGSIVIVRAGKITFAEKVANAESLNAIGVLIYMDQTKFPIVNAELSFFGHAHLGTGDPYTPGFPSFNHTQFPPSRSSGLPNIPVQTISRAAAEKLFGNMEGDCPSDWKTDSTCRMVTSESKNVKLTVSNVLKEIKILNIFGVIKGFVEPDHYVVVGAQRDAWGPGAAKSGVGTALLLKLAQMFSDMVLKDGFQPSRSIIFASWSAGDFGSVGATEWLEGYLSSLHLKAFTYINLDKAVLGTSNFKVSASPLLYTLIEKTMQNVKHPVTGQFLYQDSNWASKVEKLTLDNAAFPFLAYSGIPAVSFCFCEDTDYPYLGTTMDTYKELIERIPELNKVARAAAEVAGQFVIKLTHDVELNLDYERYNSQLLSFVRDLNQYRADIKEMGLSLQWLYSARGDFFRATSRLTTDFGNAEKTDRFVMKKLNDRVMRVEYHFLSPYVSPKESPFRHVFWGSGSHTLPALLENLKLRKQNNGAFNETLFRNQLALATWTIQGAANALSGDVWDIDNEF

Regarding 5E9C11 (antibody), in test [1], the Percent Growth Inhibition Compared to Wells with Medium Alone; HT29; MAb (0.08 µg/mL) + MAb Zap saporin conjugate amounted to 18%, the Percent Growth Inhibition Compared to Wells with Medium Alone; HT29; MAb (0.4 µg/mL) + MAb Zap saporin conjugate was found to be 58% and the Percent Growth Inhibition Compared to Wells with Medium Alone; HT29; MAb (2 µg/mL) + MAb Zap saporin conjugate worked out at 35%. In test [2], this substance returned a % cells positive of 99.8% and an MFI of 54.3. In test [3], this substance had a % cells positive of 99.4% and an MFI of 71.1.

As for Anti-HA MAb (Covance) (antibody), in test [4], the % cells positive turned out to be 61% and the MFI was determined as 19.

With “phycoerythrin (PE) conjugated donkey anti-mouse IgG Fc antibody”, in test [4], the % cells positive was determined as 0.6% and the MFI worked out at 2.15. In test [5], this substance registered a % cells positive of 1.7% and an MFI of 0.567. In addition, the Mean of Fluorescence in test [6] came to 0.57.
